Source: US20240270820A1 (ELANCO US, published 2024)

T1: canine IL13 with C-terminal poly-His tag (canine, UniProt Q9N0W9 19-131)
T1 construct: Expressed in 293 cells and purified from the supernatant
T1 sequence: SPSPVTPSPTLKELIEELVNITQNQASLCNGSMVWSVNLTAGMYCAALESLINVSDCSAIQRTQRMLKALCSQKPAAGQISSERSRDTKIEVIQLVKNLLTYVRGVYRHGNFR

T2: canine IL4 (Sino Biological Inc, Cat #70021-DNAE-5) (canine, UniProt O77762 25-132)
T2 sequence (looked up): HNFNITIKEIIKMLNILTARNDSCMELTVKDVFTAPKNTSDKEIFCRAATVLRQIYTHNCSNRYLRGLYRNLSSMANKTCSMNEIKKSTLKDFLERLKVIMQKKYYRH


Experiments:
[1] = target: T1, canine IL13 with C-terminal poly-His tag; assay: BLI (Octet), summary sentence of Example 4
[2] = target: T2, canine IL4 (Sino Biological Inc, Cat …); assay: cell-based or functional assay

Binder | binding result [1] | TF1 cell proliferation assay (CellTiter-Glo luminescence), IC50 by 4 parameter logistic fit [2]
canine IL4R-IL13R-IgGB (Fc fusion, also called canine IL4R-IL13R-Fc; Canine IL4R-IL13R-Fc (SINK)) SGSVKVLHEPSCFSDYISTSVCQWKMDHPTNCSAELRLSYQLDFMGSENHTCVPENREDSVCVCSMPIDDAVEADVYQLDLWAGQQLLWSGSFQPSKHVKPRTPGNLTVHPNISHTWLLMWTNPYPTENHLHSELTYMVNVSNDNDPEDFKVYNVTYMGPTLRLAASTLKSGASYSARVRAWAQTYNSTWSDWSPSTTWLNYYEPGGGSGTETQPPVTNLSVSVENLCTVIWTWDPPEGASPNCTLRYFSHFDNKQDKKIAPETHRSKEVPLNERICLQVGSQCSTNESDNPSILVEKCTPPPEGDPESAVTELQCVWHNLSYMKCTWLPGRNTSPDTNYTLYYWHSSLGKILQCEDIYREGQHIGCSFALTNLKDSSFEQHSVQIVVKDNAGKIRPSFNIVPLTSHVKPDPPHIKRLFFQNGNLYVQWKNPQNFYSRCLSYQVEVNNSQTETNDIFYVEEAKCQNSEFEGNLEGTICFMVPGVLPDTLNTVRIRVRTNKLCYEDDKLWSNWSQAMSIGENTDPTPKRENGRVPRPPDCPKCPAPEMLGGPSVFIFPPKPKDTLLIARTPEVTCVVVDLDPEDPEVQISWFVDGKQMQTAKTQPREEQFNGTYRVVSVLPIGHQDWLKGKQFTCKVNNKALPSPIERTISKARGQAHQPSVYVLPPSREELSKNTVSLTCLIKDFFPPDIDVEWQSNGQQEPESKYRTTPPQLDEDGSYFLYSKLSVDKSRWQRGDTFICAVMHEALHNHYTQESLSHSPGK | binds | 2 nM
canine IL13R-IL4R-IgGB (Fc fusion, also called Canis lupus IL13R-IL4R-Fc; canine IL13R-IL4R-Fc) TETQPPVTNLSVSVENLCTVIWTWDPPEGASPNCTLRYFSHFDNKQDKKIAPETHRSKEVPLNERICLQVGSQCSTNESDNPSILVEKCTPPPEGDPESAVTELQCVWHNLSYMKCTWLPGRNTSPDTNYTLYYWHSSLGKILQCEDIYREGQHIGCSFALTNLKDSSFEQHSVQIVVKDNAGKIRPSFNIVPLTSHVKPDPPHIKRLFFQNGNLYVQWKNPQNFYSRCLSYQVEVNNSQTETNDIFYVEEAKCQNSEFEGNLEGTICFMVPGVLPDTLNTVRIRVRTNKLCYEDDKLWSNWSQAMSIGENTDPTGGGSGSGSVKVLHEPSCFSDYISTSVCQWKMDHPTNCSAELRLSYQLDFMGSENHTCVPENREDSVCVCSMPIDDAVEADVYQLDLWAGQQLLWSGSFQPSKHVKPRTPGNLTVHPNISHTWLLMWTNPYPTENHLHSELTYMVNVSNDNDPEDFKVYNVTYMGPTLRLAASTLKSGASYSARVRAWAQTYNSTWSDWSPSTTWLNYYEPKRENGRVPRPPDCPKCPAPEMLGGPSVFIFPPKPKDTLLIARTPEVTCVVVDLDPEDPEVQISWFVDGKQMQTAKTQPREEQFNGTYRVVSVLPIGHQDWLKGKQFTCKVNNKALPSPIERTISKARGQAHQPSVYVLPPSREELSKNTVSLTCLIKDFFPPDIDVEWQSNGQQEPESKYRTTPPQLDEDGSYFLYSKLSVDKSRWQRGDTFICAVMHEALHNHYTQESLSHSPGK | binds | –
